Reference: patent US20250230247A1 (DREN BIO, published 2025)
Positions count from the first letter of the chain named.

T1: human Dectin-1 (biosensor tests of Tables 3, 4A and 9; construct not stated) (human, UniProt Q9BXN2 66-247, limits assumed)
T1 construct: also called hDectin-1
T1 sequence (looked up): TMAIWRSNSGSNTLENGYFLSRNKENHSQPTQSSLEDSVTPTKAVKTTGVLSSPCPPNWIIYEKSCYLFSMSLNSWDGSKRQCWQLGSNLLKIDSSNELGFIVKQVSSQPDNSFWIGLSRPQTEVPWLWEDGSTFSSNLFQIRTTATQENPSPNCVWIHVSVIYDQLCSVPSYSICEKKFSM

T2: human Dectin-1 isoform A (human, UniProt Q9BXN2 1-247)
T2 construct: also called hDectin-1a; Dectin-1 on HEK-Blue hDectin-1a cells
T2 sequence: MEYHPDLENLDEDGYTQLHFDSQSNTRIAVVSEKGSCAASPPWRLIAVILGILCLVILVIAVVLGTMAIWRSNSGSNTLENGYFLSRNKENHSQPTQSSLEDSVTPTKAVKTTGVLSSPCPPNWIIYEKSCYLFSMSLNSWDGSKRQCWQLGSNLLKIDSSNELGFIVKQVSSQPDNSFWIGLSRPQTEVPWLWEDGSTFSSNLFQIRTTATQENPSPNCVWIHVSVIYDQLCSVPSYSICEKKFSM

B1: 2M24A.1.29 (Fab, V domains shown)
VH: QVQLVQSGAEVKKPGASVKVSCKSSGYTFTDYYIHWVRQAPGQGLEWMGWINPNSGDTNYAQKFQGRITMTRDTSISTAYLELSRLRSDDTAVFYCARNSGSYSFGYWGQGTLVTVSS
VL: DIQMTQSPSSVSASVGDRVTITCRASQGISSWLAWYQQKPGKAPKLLIFGASSLQSGVPSRFSGSGSGTDFTLTVSSLQPEDFATYYCQQAYSFPFAFGPGTKVDIE
notes: Fab; also called 2M24.1.29
B2: 2M24A.1.4 hFab (Fab, V domains shown)
VH: B1 VH with Y103A
VL: B1 VL with Y92A, A97T
notes: Fab; also called 2M24.1.4
B3: 2M24A.1.19 (Fab, V domains shown)
VH: B1 VH with S104A
VL: B1 VL with A97T
notes: Fab; also called 2M24.1.19
B4: 2M24A.1.3 hFab (Fab, V domains shown)
VH: B1 VH with N99A
VL: B1 VL with Y92A, A97T
notes: Fab; also called 2M24.1.3
B5: 2M24A.1.10 hFab (Fab, V domains shown)
VH: B1 VH
VL: B1 VL with Y92F, A97T
notes: Fab; also called 2M24.1.10
B6: 2M24A.1.17 (Fab, V domains shown)
VH: B1 VH with G101A
VL: B1 VL with A97T
notes: Fab; also called 2M24.1.17
B7: 2M24A.1.23 (Fab, V domains shown)
VH: B1 VH
VL: B1 VL with Q89A, A97T
notes: Fab; also called 2M24.1.23
B8: 2M24A.1.22 (Fab, V domains shown)
VH: B1 VH with Y107A
VL: B1 VL with A97T
notes: Fab; also called 2M24.1.22
B9: 2M24A.1.27 (Fab, V domains shown)
VH: B1 VH
VL: B1 VL with P95A, A97T
notes: Fab; also called 2M24.1.27
B10: 2M24A.1.2 hFab (Fab, V domains shown)
VH: B1 VH with D57A
VL: B1 VL with Y92A, A97T
notes: Fab; also called 2M24.1.2
B11: 2M24A.1.18 (Fab, V domains shown)
VH: B1 VH with S102A
VL: B1 VL with A97T
notes: Fab; also called 2M24.1.18
B12: 2M24A.1.25 (Fab, V domains shown)
VH: B1 VH
VL: B1 VL with S93A, A97T
notes: Fab; also called 2M24.1.25
B13: 2M24A.1.5 hFab (Fab, V domains shown)
VH: B1 VH
VL: B1 VL with Y92A, A97T
notes: Fab; also called 2M24.1.5
B14: 2M24A.1.7 hFab (Fab, V domains shown)
VH: B1 VH with D57A
VL: B1 VL with Y92F, A97T
notes: Fab; also called 2M24.1.7
B15: 2M24A.1.1 hFab (Fab, V domains shown)
VH: B1 VH with D31A
VL: B1 VL with Y92A, A97T
notes: Fab; also called 2M24.1.1
B16: 2M24A.1.11 hFab (Fab, V domains shown)
VH: B1 VH with D31A
VL: B1 VL with A97T
notes: Fab; also called 2M24.1.11
B17: 2M24A.1.13 hFab (Fab, V domains shown)
VH: B1 VH with N99A
VL: B1 VL with A97T
notes: Fab; also called 2M24.1.13
B18: 2M24A.1.16 (Fab, V domains shown)
VH: B1 VH with S100A
VL: B1 VL with A97T
notes: Fab; also called 2M24.1.16
B19: 2M24A.1.6 hFab (Fab, V domains shown)
VH: B1 VH with D31A
VL: B1 VL with Y92F, A97T
notes: Fab; also called 2M24.1.6
B20: 2M24A.1.24 (Fab, V domains shown)
VH: B1 VH
VL: B1 VL with Q90A, A97T
notes: Fab; also called 2M24.1.24
B21: 2M24A.1.28 (Fab, V domains shown)
VH: B1 VH
VL: B1 VL with F96A, A97T
notes: Fab; also called 2M24.1.28
B22: 2M24A.1.8 hFab (Fab, V domains shown)
VH: B1 VH with N99A
VL: B1 VL with Y92F, A97T
notes: Fab; also called 2M24.1.8
B23: 2M24A.1.12 hFab (Fab, V domains shown)
VH: B1 VH with D57A
VL: B1 VL with A97T
notes: Fab; also called 2M24.1.12
B24: 2M24A.1.21 (Fab, V domains shown)
VH: B1 VH with G106A
VL: B1 VL with A97T
notes: Fab; also called 2M24.1.21
B25: 2M24A.1.20 (Fab, V domains shown)
VH: B1 VH with F105A
VL: B1 VL with A97T
notes: Fab; also called 2M24.1.20
B26: 2M24A.1.26 (Fab, V domains shown)
VH: B1 VH
VL: B1 VL with F94A, A97T
notes: Fab; also called 2M24.1.26
B27: 2M24A.25 hFab H3 (Fab, V domains shown)
VH: B1 VH with S24A, I68V, L81M, F94Y
VL: B1 VL with A97T
notes: Fab; also called 2M24.H3
B28: 2M24A.24 hFab H2 (Fab, V domains shown)
VH: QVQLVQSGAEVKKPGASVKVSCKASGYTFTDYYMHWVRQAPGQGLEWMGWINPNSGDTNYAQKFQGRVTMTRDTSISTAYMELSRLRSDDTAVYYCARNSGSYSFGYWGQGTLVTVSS
VL: B1 VL with A97T
notes: Fab; also called 2M24.H2
B29: 2M24A.23 hFab H1 (Fab, V domains shown)
VH: B1 VH with I68V, L81M, F94Y
VL: B1 VL with A97T
notes: Fab; also called 2M24.H1
B30: 2M24A.26 hFab H4 (Fab, V domains shown)
VH: B1 VH with I34M, I68V, L81M, F94Y
VL: B1 VL with A97T
notes: Fab; also called 2M24.H4
B31: 2M24 monospecific antibody (Example 18) (antibody, V domains shown)
VH: B1 VH
VL: B1 VL with A97T
notes: also called parental 2M24 antibody
B32: 2M24.119 monospecific antibody (antibody, V domains shown)
VH: B1 VH with S24A, I34M, S55E, Q65E, L81M, F94Y, S100T, S102A
VL: B1 VL with F49Y, S53D, V75I, S93G, A97T, E107K
B33: 2M24.116 monospecific antibody (antibody, V domains shown)
VH: B1 VH with S24A, I34M, S55E, G66E, L81M, F94Y, S100T, S102A
VL: B1 VL with F49Y, S53D, V75I, Q89H, A97T, E107K

Target: T1, human Dectin-1 (biosensor tests of …)
Assay: Octet response; for X = 340: time not given here; for X = 470: time not given here
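Throughout, for delta: Single-point dissociation rate (koff) fit for each variant binding domain, expressed as change versus the parental clone.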

X = 340 | X = 470 | X = 290 | X = 350 | Binder
0.456 | 0.35 |  |  | B1
0 | 0 |  |  | B2
 |  | 0.126 | 0.0983 | B3
0 | 0 |  |  | B4
0.49 | 0.402 |  |  | B5
 |  | 0.131 | 0.129 | B6
 |  | 0.128 | 0.104 | B7
 |  | 0.131 | 0.112 | B8
0.483 | 0.393 |  |  | B9
0.331 | 0.006 |  |  | B10
 |  | 0.138 | 0.124 | B11
0.475 | 0.432 |  |  | B12
0.3 | 0.014 |  |  | B13
0.51 | 0.398 |  |  | B14
0.305 | 0.006 |  |  | B15
0.499 | 0.418 |  |  | B16
0.028 | 0 |  |  | B17
 |  | 0.12 | 0.114 | B18
0.493 | 0.39 |  |  | B19
 |  | 0.115 | 0.073 | B20
0.309 | 0.031 |  |  | B21
0.042 | 0 |  |  | B22
0.49 | 0.399 |  |  | B23
 |  | 0.125 | 0.114 | B24
 |  | 0.0981 | 0.0215 | B25
0.231 | 0.018 |  |  | B26

Target: T1, human Dectin-1 (biosensor tests of …)
Assay: Fab K dis, average of 3

koff | Binder
0.0037 s⁻¹ | B27
0.00346 s⁻¹ | B28
0.00396 s⁻¹ | B29
0.00264 s⁻¹ | B30

Target: T1, human Dectin-1 (biosensor tests of …)
Assay: Fab K dis, run 1

koff | Binder
0.00765 s⁻¹ | B27
0.00826 s⁻¹ | B28
0.00841 s⁻¹ | B29
0.0053 s⁻¹ | B30

Target: T1, human Dectin-1 (biosensor tests of …)
Assay: Fab K dis, run 3

koff | Binder
0.00214 s⁻¹ | B27
0.0015 s⁻¹ | B28
0.00204 s⁻¹ | B29
0.0016 s⁻¹ | B30

Target: T2, human Dectin-1 isoform A
Assay: flow cytometry on HEK Blue Dectin 1a cells (MFI)

EC50 | Binder
0.343 nM | B31
0.393 nM | B32
0.37 nM | B33

Target: T1, human Dectin-1 (biosensor tests of …)
Assay: Octet
Experimental: Variant binding domains were generated, and binding affinity to human Dectin-1 was measured by biosensor (Octet). Single point off rate fits (k off) were determined for each clone and compared to the parental clone (delta), as shown in FIG. 71.

delta | Binder
23% | B1
22% | B3
18% | B5
1% | B6
18% | B7
15% | B8
19% | B9
98% | B10
9% | B11
9% | B12
95% | B13
22% | B14
98% | B15
16% | B16
100% | B17
5% | B18
21% | B19
36% | B20
90% | B21
100% | B22
19% | B23
8% | B24
78% | B25
92% | B26

Target: T1, human Dectin-1 (biosensor tests of …)
Assay: Fab K dis, run 2

koff | Binder
0.00132 s⁻¹ | B27
0.000616 s⁻¹ | B28
0.00143 s⁻¹ | B29
0.00102 s⁻¹ | B30
